The target in this data set is Q60492. Description: TOXCAT (ToxR-driven CAT reporter of transmembrane self-association); TM domain between MBP and ToxR in the membrane of E. coli MM39; CAT activity of lysates as percent of glycophorin A. The note with it: other: TOXCAT (ToxR-driven CAT reporter of transmembrane self-association).

As to WVFVNAGGWMLAMCLLHASL [TM2 domain of S1R with G91L in the TOXCAT construct], the “TOXCAT response relative to nonmutated TM2” value is given as “attenuated to only 60% of that observed from the nonmutated TM2”.

The values are drawn from paper PMC4106346, “The Oligomeric States of the Purified Sigma-1 Receptor Are Stabilized by Ligands” (The Journal of Biological Chemistry, 2014).
